This data set concerns the molecule itself. The experiment in a line: velocity sedimentation assay.

B1: Drp1 K38A (enzyme)
chain: MEALIPVINKLQDVFNTVGADIIQLPQIVVVGTQSSGASSVLESLVGRDLLPRGTGIVTRRPLILQLVHVSQEDKRKTTGEENGVEAEEWGKFLHTKNKLYTDFDEIRQEIENETERISGNNKGVSPEPIHLKIFSPNVVNLTLVDLPGMTKVPVGDQPKDIELQIRELILRFISNPNSIILAVTAANTDMATSEALKISREVDPDGRRTLAVITKLDLMDAGTDAMDVLMGRVIPVKLGIIGVVNRSQLDINNKKSVTDSIRDEYAFLQKKYPSLANRNGTKYLARTLNRLLMHHIRDCLPELKTRINVLAAQYQSLLNSYGEPVDDKSATLLQLITKFATEYCNTIEGTAKYIETSELCGGARICYIFHETFGRTLESVDPLGGLNTIDILTAIRNATGPRPALFVPEVSFELLVKRQIKRLEEPSLRCVELVHEEMQRIIQHCSNYSTQELLRFPKLHDAIVEVVTCLLRKRLPVTNEMVHNLVAIELAYINTKHPDFADACGLMNNNIEEQRRNRLARELPSAVSRDKVASGGGGVGDGVQEPTTGNWRGMLKTSKAEELLAEEKSKPIPIMPASPQKGHAVNLLDVPVPVARKLSAREQRDCEVIERLIKSYFLIVRKNIQDSVPKAVMHFLVNHVKDTLQSELVGQLYKSSLLDDLLTESEDMAQRRKEAADMLKALQGASQIIAEIRETHLW
As to B1, the binding result was “binds”.

The values are drawn from PMC4551322 (Molecular Biology of the Cell, 2015).
